{
  "source": "patent US10012655B2",
  "about": "“Method for quantitating total HMGB1 protein in biological samples” (INSTITUT PASTEUR, priority 2008, dated 2018)",
  "tested_on": "R5-HIV-1Ba-L",
  "assay": "HIV-1 replication in infected iDCs, p24 ELISA in culture supernatant",
  "assay_type": "cell-based",
  "details": "1 μg/ml, 3 days",
  "procedure": "FIGS. 6 (a), (b) and (c). Exogenous rh-HMGB1 triggers HIV-1 and HIV-2 replication in iDC. (a) HIV-1-infected iDC were cultured alone or in the presence of aNK cells for 3 days. Rh-HMGB1 (1 μg/ml) was added in some cultures. HIV replication was measured by p24 quantification in culture supernatant (b) HIV1-infected iDC were cultured alone or in the presence of aNK cells for 3 days. Blocking anti-HMGB1 antibodies (10 μg/ml) or glycyrrhizin (10 μg/ml) were added at culture initiation. HIV replication was measured by p24 quantification in culture supernatant. The mean±sd of three independent experiments is shown. Statistical comparisons were made with the non parametric Mann-Whitney test. * p<0.05; (c) HIV-2-infected iDC were cultured alone or in the presence of aNK cells for 3 days. Rh-HMGB1 (1 μg/ml) was added in some cultures. HIV replication was measured by p24 quantification in culture supernatant.\nVirus stock preparation was prepared by amplification of R5-HIV-1Ba-L on MDM from healthy donors. Viral stock was then clarified by centrifugation prior to determination of HIV1 p24 concentration. iDCs were plated in 96-well culture plates at 200,000 cells/well and incubated for 3 hours at 37° C. in a 5% CO2 atmosphere with R5-HIV-1BAL at various concentrations (0.001 to 10 ng p24/ml). Cells were harvested, washed four times with media containing 10% FCS and, when indicated, rNK or aNK cells were added at a NK:DC ratio of 1:5, unless otherwise indicated. NK-DC cocultures lasted 24 h before analysis of the maturation stage of DCs and/or quantification of viral production. In some experiments (FIG. 6), HIV-1 infected iDCs were incubated alone or with aNK cells for 3 days, in the presence of rh-HMGB1 (1 μg/ml) (R&DSystems), and in some cultures in the presence of rabbit antiHMGB1 Abs (10 μg/ml) (Abcam, Cambridge, UK) or Glycyrrhizin (10 μg/ml).\nThe concentration of HIV-1 in the supernatant of infected cell cultures was determined by measuring the amount of p24 protein by ELISA (Ingen, Belgium). DNA from cells was extracted using the GIAamp DNA Blood Mini Kit (Qiagen, Basel, Switzerland) and quantified HIV-1 proviral load by RT-PCR as described previously54. The frequency of HIV-1-infected cells was determined by flow cytometry to detect intracellular p24 molecule. Cells were surface stained with antibodies specific for CD40 (BD Biosciences, San Jose, Calif.) to target DC and intracellular stained with p24-specific antibodies (Coulter). Stained cells were fixed in 1% PFA, immediately acquired on a FACScalibur (Becton Dickinson) and analyzed with FlowJo software. In some experiments infected DCs were imaged, after immunofluorescence, by laser scanning confocal microscopy.",
  "data": [
    {"molecule": "rh-HMGB1: recombinant human HMGB1 protein (R&D Systems) (protein, UniProt P09429 1-215, looked up) High mobility group protein B1: MGKGDPKKPRGKMSSYAFFVQTCREEHKKKHPDASVNFSEFSKKCSERWKTMSAKEKGKFEDMAKADKARYEREMKTYIPPKGETKKKFKDPNAPKRPPSAFFLFCSEYRPKIKGEHPGLSIGDVAKKLGEMWNNTAADDKQPYEKKAAKLKEKYEKDIAAYRAKGKPDAAKKGVVKAEKSKKKKEEEEDEEDEEDEEEEEDEEDEDEEEDDDDE", "values": [
      {"measurement": "p24 production in culture supernatants", "setting": "HIV-1-infected iDC cocultured with aNK cells", "value": "significant stimulatory effect on p24 production"},
      {"measurement": "production of p24 in culture supernatants", "setting": "HIV-1-infected iDC cultured alone", "value": "enhancing dramatically the production of p24"}
    ]}
  ]
}
